# Experimental data published in article PMC6135800, “STAT3-coordinated migration facilitates the dissemination of diffuse large B-cell lymphomas” (Nature Communications, 2018).
# B1: GST-RhoH (natural protein, UniProt Q15669 1-191, looked up)
# chain: MLSSIKCVLVGDSAVGKTSLLVRFTSETFPEAYKPTVYENTGVDVFMDGIQISLGLWDTAGNDAFRSIRPLSYQQADVVLMCYSVANHNSFLNLKNKWIGEIRSNLPCTPVLVVATQTDQREMGPHRASCVNAMEGKKLAQDVRAKGYLECSALSNRGVQQVFECAVRTAVNQARRRNRRRLFSINECKIF
# notes: RhoH; the only GST vector named is pEBG-RhoH, made by inserting full-length cDNAs (RhoH: NM_001278369); also called GST-tagged RhoH; source: E. coli DH5α, IPTG induction, purified (glutathione-Sepharose, eluted with reduced glutathione)
# Target: T1, FLAG-RhoGDI-γ (immobilized) (UniProt Q99819 1-225)
# T1 construct: RhoGDIγ, full-length cDNA NM_001176 inserted into pFLAG-CMV2
# T1 sequence (looked up): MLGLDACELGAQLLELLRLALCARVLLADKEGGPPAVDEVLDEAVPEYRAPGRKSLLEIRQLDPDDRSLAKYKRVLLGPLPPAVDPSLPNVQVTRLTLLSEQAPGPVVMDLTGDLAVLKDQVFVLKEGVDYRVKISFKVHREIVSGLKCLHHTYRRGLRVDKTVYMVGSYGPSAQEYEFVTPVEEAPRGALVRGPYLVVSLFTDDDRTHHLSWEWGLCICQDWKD
# Experiment: pull-down; competition assay: purified GST-RhoH and RhoA incubated with immobilized FLAG-RhoGDI-γ for 2 h; increasing doses of RhoH
# Conditions: both partners purified
binder,measurement,value
B1,binding result,binds
